Consider two substances from publication PMC8224366.

For assay [1], the target named is EPN-p6 (enveloped protein nanocage monomer with the p6 domain; prokaryotic construct pET-EPN-His-p6) (HIV).
Assay [2] addresses EPN-Fos-C (EPN monomer with the Fos domain at the C-end; prokaryotic construct pET-EPN-Fos-C) (HIV | not stated).
Assay [3] concerns the target EPN-Fos-M (EPN monomer with the Fos domain between the Interaction domain and the Late budding domain; prokaryotic construct pET-EPN-Fos-M) (not stated | HIV).

For the substance “NanoLuc-Vpr (NanoLuc luciferase fused with HIV viral protein R) (from UniProt P69726 1-96)”, the NanoLuc, molecules in a single nanocage, in EV p6 (estimated from luciferase assay and the EPN/NanoLuc molar ratio by MS/MS) (molecules in a single nanocage) in assay [1] was 1.5.

Regarding “NanoLuc-Jun (NanoLuc luciferase fused with the Jun leucine zipper domain)”, in assay [2], the NanoLuc, molecules in a single nanocage, in EV C (estimated from luciferase assay and the EPN/NanoLuc molar ratio by MS/MS) (molecules in a single nanocage) was 15; the NanoLuc, molecules in a single nanocage, in EV C(lenti) (estimated from luciferase assay and the EPN/NanoLuc molar ratio by MS/MS) (molecules in a single nanocage) was 40. The NanoLuc, molecules in a single nanocage, in EV M (estimated from luciferase assay and the EPN/NanoLuc molar ratio by MS/MS) (molecules in a single nanocage) in assay [3] was 21.
